Measurements published in publication PMC8188256 (Data in Brief, 2021).
Several values for one entry are separate records, joined by “and”; a condition that tells them apart may be missing. Identical values can stand only once.

How the values were obtained:
[1] = biological target: PfHsp70–1LS (Plasmodium falciparum); experiment: SPR
[2] = biological target: PfHsp70–1 (Plasmodium falciparum); experiment: SPR
[3] = biological target: Plasmodium falciparum Hsp110 (PfHsp70-z) (Plasmodium falciparum); experiment: SPR
[4] = biological target: PfHsp70-zLS (Plasmodium falciparum); experiment: SPR
DnaKLS (E. coli) = DnaKLS (E. coli) (UniProt P0A6Y8); experiment: SPR
DnaK = DnaK (Escherichia coli, UniProt P0A6Y8); experiment: biochemical
Chain of DnaK (P0A6Y8 2-638): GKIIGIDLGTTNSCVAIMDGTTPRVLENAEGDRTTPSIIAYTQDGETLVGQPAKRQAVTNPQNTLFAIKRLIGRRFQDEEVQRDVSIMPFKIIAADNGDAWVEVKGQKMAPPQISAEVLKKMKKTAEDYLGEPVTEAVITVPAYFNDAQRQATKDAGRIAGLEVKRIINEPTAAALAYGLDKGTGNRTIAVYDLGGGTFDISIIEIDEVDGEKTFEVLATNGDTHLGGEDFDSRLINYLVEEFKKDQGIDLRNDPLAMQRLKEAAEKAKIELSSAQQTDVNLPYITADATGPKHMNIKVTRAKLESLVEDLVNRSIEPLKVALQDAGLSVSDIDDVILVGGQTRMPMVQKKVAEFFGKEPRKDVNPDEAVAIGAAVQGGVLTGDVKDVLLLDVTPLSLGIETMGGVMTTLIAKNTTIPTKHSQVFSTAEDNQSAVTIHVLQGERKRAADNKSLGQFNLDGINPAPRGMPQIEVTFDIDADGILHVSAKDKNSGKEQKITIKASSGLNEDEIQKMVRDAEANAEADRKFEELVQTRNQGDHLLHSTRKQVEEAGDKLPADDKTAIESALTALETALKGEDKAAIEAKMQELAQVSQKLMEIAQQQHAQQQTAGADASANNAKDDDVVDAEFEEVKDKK

Chain of DnaJ (P08622 whole entry): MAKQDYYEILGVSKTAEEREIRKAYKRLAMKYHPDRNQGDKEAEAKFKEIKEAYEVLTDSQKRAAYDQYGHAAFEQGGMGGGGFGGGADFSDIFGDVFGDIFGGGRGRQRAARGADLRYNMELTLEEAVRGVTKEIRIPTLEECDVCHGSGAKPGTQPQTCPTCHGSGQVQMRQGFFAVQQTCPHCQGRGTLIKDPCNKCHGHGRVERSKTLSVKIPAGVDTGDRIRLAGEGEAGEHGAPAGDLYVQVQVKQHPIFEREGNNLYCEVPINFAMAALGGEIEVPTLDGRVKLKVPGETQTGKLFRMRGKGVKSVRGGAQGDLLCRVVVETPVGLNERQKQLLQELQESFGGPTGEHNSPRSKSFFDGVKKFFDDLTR

With PfHsp40 (natural protein) as the compound, how does the kon [1] read?
The kon was 6040 M⁻¹ s⁻¹ and 2200 M⁻¹ s⁻¹ and 6140 M⁻¹ s⁻¹.

What about the koff [2] of the same compound?
The koff was 0.0815 s⁻¹ and 0.0866 s⁻¹ and 0.0361 s⁻¹.

And the koff [3]?
Its koff is 0.0713 s⁻¹ and 0.0396 s⁻¹ and 0.0369 s⁻¹.

What about the kon [4] of the same compound?
Its kon is 9020 M⁻¹ s⁻¹ and 6170 M⁻¹ s⁻¹ and 7250 M⁻¹ s⁻¹.

Which koff (DnaKLS (E. coli)) does the source give for “DnaJ (from UniProt P08622 1-376) (natural protein)” here?
Its koff is 0.0676 s⁻¹ and 0.0732 s⁻¹ and 0.0522 s⁻¹.

For `Nc1ncnc2c1ncn2[C@@H]1O[C@H](COP(=O)(O)OP(=O)(O)OP(=O)(O)O)[C@@H](O)[C@H]1O` [ATP], which Kd (DnaK) is on record?
The Kd was 398 nM.
